Assays:
PC-3 tumor xenografts = experiment: Biodistribution; details: PC-3 tumor bearing SCID mice; for tumor retention: initial (15 min) uptake retained in the tumor tissue: 24 hr post-injection relative to the 15 min values
Biodistribution = details: ICR SCID, mouse, in vivo, 185 kBq, total radioactivity, tumor uptake, PC-3 tumor bearing SCID mice, 15 min post-injection

Question: What does the source list for CSCC[C@H](NC(=O)[C@H](CC(C)C)NC(=O)[C@H](Cc1c[nH]cn1)NC(=O)CNC(=O)[C@@H](NC(=O)[C@H](C)NC(=O)[C@H](Cc1c[nH]c2ccccc12)NC(=O)[C@H](CCC(N)=O)NC(=O)CCC(=O)NCCOCCOCCNC(=O)CN1CCN(CC(=O)O)CCN(CC(=O)O)CCN(CC(=O)O)CC1)C(C)C)C(N)=O [In-DOTA-8-ADS-BBN(7-14)NH2]?
Answer: tumor retention: initial (15 min) uptake retained in the tumor tissue (PC-3 tumor xenografts): 19.8%; tissue uptake at 0.25 h (Biodistribution): 6.21 ± 1.57 %ID/g

Question: What does the source list for CSCC[C@H](NC(=O)[C@H](CC(C)C)NC(=O)[C@H](Cc1cnc[nH]1)NC(=O)CNC(=O)[C@@H](NC(=O)[C@H](C)NC(=O)[C@H](Cc1c[nH]c2ccccc12)NC(=O)[C@H](CCC(N)=O)NC(=O)c1ccc(NC(=O)CN2CCN(CC(=O)O)CCN(CC(=O)O)CCN(CC(=O)O)CC2)cc1)C(C)C)C(N)=O [In-DOTA-AMBA-BBN(7-14)NH2]?
Answer: tumor retention: initial (15 min) uptake retained in the tumor tissue (PC-3 tumor xenografts): 26.6%; tissue uptake at 0.25 h (Biodistribution): 6.36 ± 1.6 %ID/g

Question: With CSCC[C@H](NC(=O)[C@H](CC(C)C)NC(=O)[C@H](Cc1cnc[nH]1)NC(=O)CNC(=O)[C@@H](NC(=O)[C@H](C)NC(=O)[C@H](Cc1c[nH]c2ccccc12)NC(=O)[C@H](CCC(N)=O)NC(=O)CCCCCCCNC(=O)CN1CCN(CC(=O)O)CCN(CC(=O)O)CCN(CC(=O)O)CC1)C(C)C)C(N)=O [In-DOTA-8-AOC-BBN(7-14)NH2] as the molecule, how does the Heart (PC-3 tumor xenografts; 1 hr p.i., i.v.) read?
Answer: 0.19 ± 0.20 %ID/g

Question: And the Liver (PC-3 tumor xenografts; 4 hr p.i., i.v., n = 5)?
Answer: 0.15 ± 0.02 %ID/g

Question: And the Lung (PC-3 tumor xenografts; 24 hr p.i., i.v., n = 5)?
Answer: 0.07 ± 0.03 %ID/g

Question: And the “tumor retention: initial (15 min) uptake retained in the tumor tissue” value (PC-3 tumor xenografts)?
Answer: 11.4%

Question: What about the tissue uptake at 0.25 h (Biodistribution) of the same molecule?
Answer: 6.66 ± 2 %ID/g
